From patent US20210238276A1 (INTEGRAL MOLECULAR, published 2021)

T1: hsGLUT4 F405A (human, UniProt P14672 1-509)
T1 sequence: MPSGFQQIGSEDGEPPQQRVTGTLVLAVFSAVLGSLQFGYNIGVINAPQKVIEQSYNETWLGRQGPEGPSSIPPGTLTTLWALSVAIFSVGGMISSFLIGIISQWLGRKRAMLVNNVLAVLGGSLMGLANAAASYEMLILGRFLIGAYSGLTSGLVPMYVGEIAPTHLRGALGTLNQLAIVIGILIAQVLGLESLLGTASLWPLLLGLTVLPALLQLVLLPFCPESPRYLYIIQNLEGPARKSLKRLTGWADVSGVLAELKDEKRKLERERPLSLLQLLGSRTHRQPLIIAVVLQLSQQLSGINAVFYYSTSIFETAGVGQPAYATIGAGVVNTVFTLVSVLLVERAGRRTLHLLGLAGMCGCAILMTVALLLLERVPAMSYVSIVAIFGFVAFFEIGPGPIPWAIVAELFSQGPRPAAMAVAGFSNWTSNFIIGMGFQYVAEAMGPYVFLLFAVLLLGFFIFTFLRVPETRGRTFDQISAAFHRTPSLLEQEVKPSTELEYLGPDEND

T2: hsGLUT4 R416A (human, UniProt P14672 1-509)
T2 sequence: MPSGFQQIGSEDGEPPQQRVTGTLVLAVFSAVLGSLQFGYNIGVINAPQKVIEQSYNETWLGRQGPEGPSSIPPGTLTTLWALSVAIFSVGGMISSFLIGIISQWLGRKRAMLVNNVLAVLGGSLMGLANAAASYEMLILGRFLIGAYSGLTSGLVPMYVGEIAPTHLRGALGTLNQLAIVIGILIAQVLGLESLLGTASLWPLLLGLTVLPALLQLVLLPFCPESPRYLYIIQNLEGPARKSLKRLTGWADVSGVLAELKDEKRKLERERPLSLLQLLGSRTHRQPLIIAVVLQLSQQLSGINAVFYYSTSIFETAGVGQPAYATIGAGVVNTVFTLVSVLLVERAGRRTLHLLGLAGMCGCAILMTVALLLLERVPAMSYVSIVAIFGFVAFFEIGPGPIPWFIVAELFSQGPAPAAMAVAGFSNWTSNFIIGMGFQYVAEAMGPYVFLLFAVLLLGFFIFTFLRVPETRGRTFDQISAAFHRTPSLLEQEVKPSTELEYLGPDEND

T3: hsGLUT4 P224A (human, UniProt P14672 1-509)
T3 sequence: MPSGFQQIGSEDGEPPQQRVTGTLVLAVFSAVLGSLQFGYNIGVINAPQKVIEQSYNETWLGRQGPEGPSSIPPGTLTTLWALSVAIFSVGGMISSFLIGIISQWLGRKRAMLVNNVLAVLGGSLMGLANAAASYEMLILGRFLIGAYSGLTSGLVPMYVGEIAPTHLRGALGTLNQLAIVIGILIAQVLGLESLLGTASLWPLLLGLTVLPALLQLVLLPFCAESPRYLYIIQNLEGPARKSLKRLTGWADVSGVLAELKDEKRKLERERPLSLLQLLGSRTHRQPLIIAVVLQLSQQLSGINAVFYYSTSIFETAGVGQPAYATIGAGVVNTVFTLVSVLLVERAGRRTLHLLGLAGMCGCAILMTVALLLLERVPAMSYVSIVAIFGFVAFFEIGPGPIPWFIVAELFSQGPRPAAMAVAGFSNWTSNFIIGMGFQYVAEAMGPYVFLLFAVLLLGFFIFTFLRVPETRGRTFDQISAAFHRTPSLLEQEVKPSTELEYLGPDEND

T4: hsGLUT4 R169A (human, UniProt P14672 1-509)
T4 sequence: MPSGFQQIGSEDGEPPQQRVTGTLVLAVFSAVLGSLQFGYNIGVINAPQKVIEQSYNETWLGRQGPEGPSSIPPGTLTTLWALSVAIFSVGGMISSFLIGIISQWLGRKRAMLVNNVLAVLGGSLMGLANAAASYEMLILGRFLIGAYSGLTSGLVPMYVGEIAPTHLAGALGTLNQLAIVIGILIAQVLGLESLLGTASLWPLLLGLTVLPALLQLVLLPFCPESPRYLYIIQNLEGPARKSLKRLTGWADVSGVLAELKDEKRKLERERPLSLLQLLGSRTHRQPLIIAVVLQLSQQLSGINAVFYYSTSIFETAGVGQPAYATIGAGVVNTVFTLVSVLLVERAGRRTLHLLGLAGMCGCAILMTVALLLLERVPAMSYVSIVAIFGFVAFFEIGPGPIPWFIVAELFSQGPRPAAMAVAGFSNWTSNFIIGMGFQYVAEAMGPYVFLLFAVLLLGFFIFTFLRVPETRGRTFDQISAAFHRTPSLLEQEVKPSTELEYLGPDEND


What was measured:
Experiment in all cases: flow cytometry, alanine-scan library in HEK-293T
hsGLUT4 F405A = target: T1, hsGLUT4 F405A
Description: (§1) Because of the state-dependence of the isolated MAbs, we next wished to understand the mechanism by which each MAb could recognize GLUT4 in its different conformations. The residues required for binding of each MAb were determined using shotgun mutagenesis comprehensive alanine scanning (Davidson E & Doranz B J (2014) A High-Throughput Shotgun Mutagenesis Approach to Mapping B-cell Antibody Epitopes. Immunology, which is hereby incorporated by reference in its entirety). All residues of hsGLUT4 were individually mutated to alanine, with existing alanines changed to serines. Mutations were obtained for 508 of the 509 residues of GLUT4 (excluding the initiating methionine). The entire mutation library was transfected into human HEK-293T cells in a 384-well array format (one clone per well) and assessed for immunoreactivity using high-throughput flow cytometry.
(§2) HEK-293T cells were transfected by CaPO₄ with plasmids in 6-well culture plates (Falcon) at 750,000 cells/well. At 48 hours post transfection, cells were stained with anti-V5 and anti-GLUT4 MAbs (purified scFv, 2 μg/ml) followed by biotinylated goat anti-mouse or human antibody (1:500) and streptavidin-PerCP (1:500). Fluorescence was detected using an Intellicyt high-throughput flow cytometer (HTFC; Intellicyt, Albuquerque, N. Mex.). For cell permeabilization, cells were treated with saponin at 0.1% in PBS for 20 minutes. To discriminate intact (live) and permeabilized (dead) cells without the use of detergent, propidium iodide (PI) was added to HEK-293T cells at 1 ug/ml just prior to flow cytometry. Where indicated, cytochalasin B (Sigma) was used at a final concentration of 10 uM and phloretin (Sigma) was used at a final concentration of 100 uM, each added in 10% NGS for 30 minutes prior to antibody staining as well as included with the primary antibody.

hsGLUT4 R416A = target: T2, hsGLUT4 R416A
Description: as §1, §2

hsGLUT4 P224A = target: T3, hsGLUT4 P224A
Description: as §1, §2

hsGLUT4 R169A = target: T4, hsGLUT4 R169A
Description: as §1, §2

| Molecule | % of binding to wild type GLUT4 (hsGLUT4 F405A) [%] | % of binding to wild type GLUT4 (hsGLUT4 R416A) [%] | % of binding to wild type GLUT4 (hsGLUT4 P224A) [%] | % of binding to wild type GLUT4 (hsGLUT4 R169A) [%] |
| --- | --- | --- | --- | --- |
| 1F8 (antibody) | 107 | 73 | 103 | 84 |
| AB111 (Fc fusion, Bivalent scFv-Fc; also called MAb AB111; not shown: Fc fragment of human IgG1, cloned in frame with the scFv) scFv: ALTQPSSVSANPGETVKITCSGSGSWYGWFQQKSPGSAPVTVIYSNDKRPSDIPSRFSGSKSGSTSTLTITGVQVEDEAVYYCGNWDIFGAGTTLTVLGQSSRSSGGGGSSGGGGSAVTLDESGGGLQTPGGALSLVCKASGFTFSSHGMGWVRQAPGKGLEWVASISTGRYTFYAPAVKGRATISRDNGQSTVRLQLNNLRAEDTATYYCTKCAGLNGCGGGEIDAWGHGTEVIVSS | 118 | 157 | 108 | 97 |
| AB108 (Fc fusion, Bivalent scFv-Fc; also called MAb AB108; not shown: Fc fragment of human IgG1, cloned in frame with the scFv) scFv: ALTQPSSVSANLGGTVKITCSGSSGSYGWYQQKAPGSAPVTLIYRNDKRPSDIPSRFSGSESGSTGTLTITGVQAEDEAVYFCGGYDSSAGYAAFGAGTTLTVLGQSSRSSGGGGSSGGGGSAVTLDESGGGLQTPGGALSLVCKASGFTFSSHGMGWVRQAPGKGLEWVGSISTGRYTFYAPAVKGRATISRDNGQSTLRLQLNNLRAEDTGTYYCTKCAGLNGCGGGEIDAWGHGTEVIVSS | 103 | 67 | 56 | 108 |
| AB101 (scFv, Chicken-derived clone used as a control; the four lead clones were tested as scFv-human IgG1 Fc; also called MAb AB101) scFv: ALTQPSSVSANPGETVKITCSGSSNSYGWYQQKSPGSAPVTVIYYNDKRPSDIPSRFSGSKSDSTHTLTITGVRAEDEAVYFCGSYDSTYVGIFGAGTTLTVLGQSSRSSGGGGSSGGGGSAVTLDESGGGLQTPGGTLSLVCKASGFTFSSNAMGWVRQAPGKGLEWVAGISSDGRYTKYGSAVKGRATISRDNGQSTVRLQLNNLRAEDTGTYFCAKAFGNNYRRIYAGQIDAWGHGTEVIVSS | 106 | 69 | 90 | 119 |
